In patent publication US11111295 (CAFA THERAPEUTICS, dated 2021):

T1: human claudin 18A1 (CLD18A1) (human, UniProt P56856 1-261)
T1 construct: also called CLD18.1; claudin 18 splice variant 1
T1 sequence: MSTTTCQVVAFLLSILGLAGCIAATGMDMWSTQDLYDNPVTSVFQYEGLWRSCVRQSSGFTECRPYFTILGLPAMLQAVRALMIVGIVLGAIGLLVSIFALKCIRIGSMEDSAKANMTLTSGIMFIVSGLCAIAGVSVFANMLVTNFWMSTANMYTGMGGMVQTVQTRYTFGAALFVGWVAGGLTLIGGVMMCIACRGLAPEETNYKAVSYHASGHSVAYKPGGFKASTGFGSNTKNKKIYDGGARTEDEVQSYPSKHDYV


Assays:
[1] = target: T2, human claudin 18A2 (CLD18A2) (human); assay: flow cytometry, hybridoma supernatant on HEK293-CLD18A2 against HEK293-CLD18A1
T2 construct: also called CLD18.2; CLDN18A2
Source text: (§1) Individual cells were screened for anti-CLD18A2 monoclonal antibody by flow cytometry, and HEK293 cells (HEK-CLD18A2) stably expressing human CLD18A2 were used for primary screening by flow cytometry using a Guava easyCyte™ HT System instrument. The binding of the antibody to human CLD18A1 and CLD18A2 transformants was then compared by flow cytometry. The instrument used was the Guava easyCyte™ HT System.
(§2) After multiple rounds of preparation and screening of hybridomas, the inventors found several antibodies with relatively ideal binding properties.

[2] = target: T1, human claudin 18A1 (CLD18A1); assay: flow cytometry, hybridoma supernatant on HEK293 cells stably transfected with human CLD18A1
Source text: as §1, §2

[3] = target: T2, human claudin 18A2 (CLD18A2); assay: flow cytometry, scFv_Fc on HEK293 cells stably transfected with human CLD18A2
Description: Binding of anti-Claudin 18A2 scFv_Fc fusion antibody to HEK293 cells stably transfected with CLD18A2 was determined by flow cytometry. Experimental data was analyzed using GraphPad Prism and Guava easyCyte™ HT System instrument as described in Example 1 to obtain EC50 value.

[4] = target: T2, human claudin 18A2 (CLD18A2); assay: cell-based or functional assay

fold difference of average fluorescence intensity, CLD18A2 against CLD18A1 cells [1] | binding result [2] | EC50 [3] | Binder | further results
> 5 times | no binding |  | murine monoclonal antibody 8E5 (hybridoma supernatant) (antibody, V domains shown, Mouse hybridoma antibody tested as supernatant) VH: DVQLQESGPDLVKPSQSLSLTCTVTGYSITSGYNWHWIRQFPGNKMEWMGYIHYTGSTNYNPSLRSRISITRDTSKNQFFLQLNSVTTDDTATYYCTRIYNGNSFPYWGQGTSVTVSS VL: DIVMTQSPSSLTVTPGEKVTMTCKSSQSLFNSGNQKNYLTWYQQRPGQPPKMLIYWASTRESGVPDRFTGSGSGTDFTLTISSVQAEDLAVFYCQNAYSFPYTFGGGTKLEIKR | 
 |  | 3.56 nM | 2B1 scFv_Fc fusion antibody (scFv of 2B1 fused to human IgG1 Fc portion) (Fc fusion, also called murine anti-2B1 ScFv; not shown: human IgG1 Fc portion) scFv: QVQLQQSGAELARPGASVKMSCKASGYTFTSYTMHWVKQRPGQGLEWIGYINPSSGYTNYNQKFKDKATLTADKSSSTAYMQLSSLTSEDSAVYYCARIYYGNSFAYWGQGTTVTVSSGGGGSGGGGSGGGGSDIVMTQSPSSLTVTAGEKVTMSCKSSQSLLNSGNQKNYLTWYQQKPGQPPKLLIYWASTRESGVPDRFTGSGSGTDFTLTISSVQAEDLAVYYCQNDYSYPLTFGAGTKLELKR | 
 |  | 3.85 nM | 2B1-S54A scFv_Fc fusion antibody (Fc fusion, not shown: human IgG1 Fc portion) scFv: QVQLQQSGAELARPGASVKMSCKASGYTFTSYTMHWVKQRPGQGLEWIGYINPASGYTNYNQKFKDKATLTADKSSSTAYMQLSSLTSEDSAVYYCARIYYGNSFAYWGQGTTVTVSSGGGGSGGGGSGGGGSDIVMTQSPSSLTVTAGEKVTMSCKSSQSLLNSGNQKNYLTWYQQKPGQPPKLLIYWASTRESGVPDRFTGSGSGTDFTLTISSVQAEDLAVYYCQNDYSYPLTFGAGTKLELKR | 
 |  | 6.11 nM | 2B1-N52D scFv_Fc fusion antibody (Fc fusion, not shown: human IgG1 Fc portion) scFv: QVQLQQSGAELARPGASVKMSCKASGYTFTSYTMHWVKQRPGQGLEWIGYIDPSSGYTNYNQKFKDKATLTADKSSSTAYMQLSSLTSEDSAVYYCARIYYGNSFAYWGQGTTVTVSSGGGGSGGGGSGGGGSDIVMTQSPSSLTVTAGEKVTMSCKSSQSLLNSGNQKNYLTWYQQKPGQPPKLLIYWASTRESGVPDRFTGSGSGTDFTLTISSVQAEDLAVYYCQNDYSYPLTFGAGTKLELKR | 
 |  | 18.6 nM | hu2B1-S54A scFv fused to human IgG1 Fc portion (Fc fusion, also called humanized hu2B1-S54A; not shown: human IgG1 Fc portion) scFv: QVQLVQSGAEVKKPGASVKVSCKASGYTFTSYTMHWVRQAPGQGLEWMGYINPASGYTNYNQKFKDRVTMTRDTSTSTAYMELSSLRSEDTAVYYCARIYYGNSFAYWGQGTLVTVSSGGGGSGGGGSGGGGSDIVMTQSPDSLAVSLGERATINCKSSQSLLNSGNQKNYLTWYQQKPGQPPKLLIYWASTRESGVPDRFSGSGSGTDFTLTISSLQAEDVAVYYCQNDYSYPLTFGGGTKVEIKR | 
> 5 times | no binding |  | murine monoclonal antibody 2B1 (hybridoma supernatant) (antibody, V domains shown, Mouse hybridoma antibody tested as supernatant) VH: QVQLQQSGAELARPGASVKMSCKASGYTFTSYTMHWVKQRPGQGLEWIGYINPSSGYTNYNQKFKDKATLTADKSSSTAYMQLSSLTSEDSAVYYCARIYYGNSFAYWGQGTTVTVSS VL: DIVMTQSPSSLTVTAGEKVTMSCKSSQSLLNSGNQKNYLTWYQQKPGQPPKLLIYWASTRESGVPDRFTGSGSGTDFTLTISSVQAEDLAVYYCQNDYSYPLTFGAGTKLELKR | 
> 5 times | no binding |  | murine monoclonal antibody 4A11 (hybridoma supernatant) (antibody, V domains shown, Mouse hybridoma antibody tested as supernatant; the latter is used) VH: QIQLVQSGPELKKPGETVKISCKASGYTFTNYGMNWVKQAPGKGLKWMGWINTNTGEPTYAEEFKGRFAFSLETSASTAYLQINNLKNEDTATYFCARFSYGNSFAYWGQGTTVTVSS VL: DIVMTQSPSSLSVSAGEKVTMSCKSSQSLLNSGNQKNYLAWYQQKPGQPPKLLIYGASTRESGVPDRFTGSGSGTDFTLTISSVQAEDLAVYYCQNDHSYPLTFGAGTKLELKR | 
 |  | 49.2 nM | 8E5 scFv_Fc fusion antibody (scFv of 8E5 fused to human IgG1 Fc portion) (Fc fusion, also called parent antibody 8E5; not shown: human IgG1 Fc portion) scFv: DVQLQESGPDLVKPSQSLSLTCTVTGYSITSGYNWHWIRQFPGNKMEWMGYIHYTGSTNYNPSLRSRISITRDTSKNQFFLQLNSVTTDDTATYYCTRIYNGNSFPYWGQGTSVTVSSGGGGSGGGGSGGGGSDIVMTQSPSSLTVTPGEKVTMTCKSSQSLFNSGNQKNYLTWYQQRPGQPPKMLIYWASTRESGVPDRFTGSGSGTDFTLTISSVQAEDLAVFYCQNAYSFPYTFGGGTKLEIKR | 
 |  | 107 nM | hu8E5 scFv fused to human IgG1 Fc portion (Fc fusion, also called hu8E5-S62A; not shown: human IgG1 Fc portion) scFv: QVQLQESGPGLVKPSQTLSLTCTVSGGSISSGYNWHWIRQPPGKGLEWIGYIHYTGSTNYNPALRSRVTISVDTSKNQFSLKLSSVTAADTAVYYCARIYNGNSFPYWGQGTTVTVSSGGGGSGGGGSGGGGSDIVMTQSPDSLAVSLGERATINCKSSQSLFNSGNQKNYLTWYQQKPGQPPKLLIYWASTRESGVPDRFSGSGSGTDFTLTISSLQAEDVAVYYCQNAYSFPYTFGGGTKLEIKR | 
 |  | 9.22 nM | hu8E5-2I scFv fused to human IgG1 Fc portion (Fc fusion, also called mutant hu8E5-2I; not shown: human IgG1 Fc portion) scFv: QVQLQESGPGLIKPSQTLSLTCTVSGGSISSGYNWHWIRQPPGKGLEWIGYIHYTGSTNYNPALRSRVTISVDTSKNQFSLKLSSVTAADTAIYYCARIYNGNSFPYWGQGTTVTVSSGGGGSGGGGSGGGGSDIVMTQSPDSLAVSLGERATINCKSSQSLFNSGNQKNYLTWYQQKPGQPPKLLIYWASTRESGVPDRFSGSGSGTDFTLTISSLQAEDVAVYYCQNAYSFPYTFGGGTKLEIKR | fold increase of affinity against the parent antibody 8E5 [3]: 5 fold
 |  |  | humanized antibody hu2B1-S54A (full antibody) (antibody, human IgG1, kappa, V domains shown) VH: QVQLVQSGAEVKKPGASVKVSCKASGYTFTSYTMHWVRQAPGQGLEWMGYINPASGYTNYNQKFKDRVTMTRDTSTSTAYMELSSLRSEDTAVYYCARIYYGNSFAYWGQGTLVTVSS VL: DIVMTQSPDSLAVSLGERATINCKSSQSLLNSGNQKNYLTWYQQKPGQPPKLLIYWASTRESGVPDRFSGSGSGTDFTLTISSLQAEDVAVYYCQNDYSYPLTFGGGTKVEIKR | ADCC effect (LDH release), antibody 20 µg/ml, effector-to-target ratio 50:1 [4]: 62.8%
 |  |  | humanized antibody hu8E5-2I (full antibody) (antibody, human IgG1, kappa, V domains shown) VH: QVQLQESGPGLIKPSQTLSLTCTVSGGSISSGYNWHWIRQPPGKGLEWIGYIHYTGSTNYNPALRSRVTISVDTSKNQFSLKLSSVTAADTAIYYCARIYNGNSFPYWGQGTTVTVSS VL: DIVMTQSPDSLAVSLGERATINCKSSQSLFNSGNQKNYLTWYQQKPGQPPKLLIYWASTRESGVPDRFSGSGSGTDFTLTISSLQAEDVAVYYCQNAYSFPYTFGGGTKLEIKR | ADCC effect (LDH release), antibody 20 µg/ml, effector-to-target ratio 50:1 [4]: 72.9%
> 5 times | no binding |  | murine monoclonal antibody 3E12 (hybridoma supernatant) (antibody, V domains shown, Mouse hybridoma antibody tested as supernatant) VH: QVQLQQSGPELVKPGALVKISCKASGYTFTSYDINWVKQRPGQGLEWIGWIYPGDGSTKYNEKFKGKATLTADKSSSTAYMQLSSLTSENSAVYFCARGGYRYDEAMDYWGQGTTVTVSS VL: QIVLTQSPAIMSASPGEKVTMTCSASSSISYMHWYQQKPGTSPKRWIYDTSKLASGVPARFSGSGSGTSYSLTISSMEAEDAATYYCHQRSSYPYTFGGGTKLEIKR | 
